Experimental findings from patent US20120094935A1 are described below.

Assay [1] has as its target N-terminally His-tagged form of human TNFα (residues 6-157, numbered as in PDB entry 1TNF), soluble TNFα trimer (human) (UniProt P01375). As to the kind of experiment: crystal structure, SC program in CCP4.
The target is the same in assay [2]. The assay is described as follows: crystal structure, AREAIMOL with 1.4 Å probe.

Chain of UniProt P01375 (P01375 other isoform, or with tags, fused parts or gaps limits assumed): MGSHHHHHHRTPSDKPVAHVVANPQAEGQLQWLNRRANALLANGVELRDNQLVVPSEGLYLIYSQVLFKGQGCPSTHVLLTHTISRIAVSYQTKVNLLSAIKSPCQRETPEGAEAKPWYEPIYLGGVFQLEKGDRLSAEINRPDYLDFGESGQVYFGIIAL

“C-terminally His-tagged version of Yaba-like disease virus (YLDV) 2L lacking six C-terminal residues” yielded a shape complementarity index SC in assay [1] of 0.72. In assay [2], this substance returned a buried surface area contributed by 2L of 1030 Å^2 and a total buried surface area at the 2L-TNFα interface of 2060 Å^2.
